Assay results reported in EP4527855A2.

Legend:
[1] = biological target: 28mer peptide of the CXCR5 antigen; experiment: Antigen-ELISA on the 28mer CXCR5 peptide, relative EC50 against the standard; DS in PBS, 1 month at 25°C
[2] = biological target: 28mer peptide of the CXCR5 antigen; experiment: Antigen ELISA, relative EC50 against the reference; 100 mg/mL formulation, 6 months at -20°C
[3] = biological target: 28mer peptide of the CXCR5 antigen; experiment: Antigen ELISA, relative EC50 against the reference; 100 mg/mL formulation, 12 months at +5°C
[4] = biological target: 28mer peptide of the CXCR5 antigen; experiment: Antigen-ELISA on the 28mer CXCR5 peptide, relative EC50 against the standard; DS in PBS, 3 months at 25°C
[5] = biological target: 28mer peptide of the CXCR5 antigen; experiment: Antigen-ELISA on the 28mer CXCR5 peptide, relative EC50 against the standard; DS in PBS, 1 month at 5°C
[6] = biological target: 28mer peptide of the CXCR5 antigen; experiment: Antigen-ELISA on the 28mer CXCR5 peptide, relative EC50 against the standard; DS in PBS, 1 month at -20°C
[7] = biological target: 28mer peptide of the CXCR5 antigen; experiment: Antigen ELISA, relative EC50 against the reference; 100 mg/mL formulation, +5°C study, initial
[8] = biological target: 28mer peptide of the CXCR5 antigen; experiment: Antigen ELISA, relative EC50 against the reference; 100 mg/mL formulation, -20°C study, initial
[9] = biological target: 28mer peptide of the CXCR5 antigen; experiment: Antigen ELISA, relative EC50 against the reference; 100 mg/mL formulation, 1 month at +5°C
[10] = biological target: 28mer peptide of the CXCR5 antigen; experiment: Antigen-ELISA on the 28mer CXCR5 peptide, relative EC50 against the current antibody standard; DS in PBS, release
[11] = biological target: 28mer peptide of the CXCR5 antigen; experiment: Antigen ELISA, relative EC50 against the reference; 100 mg/mL formulation, +25°C/60% RH study, initial
[12] = biological target: 28mer peptide of the CXCR5 antigen; experiment: Antigen-ELISA on the 28mer CXCR5 peptide, relative EC50 against the standard; DS in PBS, 3 months at -20°C
[13] = biological target: 28mer peptide of the CXCR5 antigen; experiment: Antigen ELISA, relative EC50 against the reference; 100 mg/mL formulation, 1 month at -20°C
[14] = biological target: 28mer peptide of the CXCR5 antigen; experiment: Antigen-ELISA on the 28mer CXCR5 peptide, relative EC50 against the standard; DS in PBS, 3 months at 5°C
[15] = biological target: 28mer peptide of the CXCR5 antigen; experiment: Antigen ELISA, relative EC50 against the reference; 100 mg/mL formulation, 18 months at +5°C
[16] = biological target: 28mer peptide of the CXCR5 antigen; experiment: Antigen ELISA, relative EC50 against the reference; 100 mg/mL formulation, 3 months at -20°C
[17] = biological target: 28mer peptide of the CXCR5 antigen; experiment: Antigen ELISA, relative EC50 against the reference; 100 mg/mL formulation, 1 month at +25°C/60% RH
[18] = biological target: 28mer peptide of the CXCR5 antigen; experiment: Antigen ELISA, relative EC50 against the reference; 100 mg/mL formulation, 3 months at +25°C/60% RH
[19] = biological target: 28mer peptide of the CXCR5 antigen; experiment: Antigen ELISA, relative EC50 against the reference; 100 mg/mL formulation, 15 months at +5°C
[20] = biological target: 28mer peptide of the CXCR5 antigen; experiment: Antigen ELISA, relative EC50 against the reference; 100 mg/mL formulation, 18 months at -20°C
[21] = biological target: 28mer peptide of the CXCR5 antigen; experiment: Antigen ELISA, relative EC50 against the reference; 100 mg/mL formulation, 6 months at +25°C/60% RH
[22] = biological target: 28mer peptide of the CXCR5 antigen; experiment: Antigen ELISA, relative EC50 against the reference; 100 mg/mL formulation, 12 months at -20°C
[23] = biological target: 28mer peptide of the CXCR5 antigen; experiment: Antigen ELISA, relative EC50 against the reference; 100 mg/mL formulation, 9 months at +5°C
[24] = biological target: 28mer peptide of the CXCR5 antigen; experiment: Antigen ELISA, relative EC50 against the reference; 100 mg/mL formulation, 3 months at +5°C
[25] = biological target: 28mer peptide of the CXCR5 antigen; experiment: Antigen ELISA, relative EC50 against the reference; 100 mg/mL formulation, 9 months at -20°C
[26] = biological target: 28mer peptide of the CXCR5 antigen; experiment: Antigen ELISA, relative EC50 against the reference; 100 mg/mL formulation, 6 months at +5°C

Ag-ELISA EC50 % (relative to standard) [1]: 106% | Potency (Antigen ELISA), EC50 value in comparison to reference [2]: 96% | Potency (Antigen ELISA), EC50 value in comparison to reference [3]: 93% | Ag-ELISA EC50 % (relative to standard) [4]: 108% | Ag-ELISA EC50 % (relative to standard) [5]: 83% | Ag-ELISA EC50 % (relative to standard) [6]: 132% | Potency (Antigen ELISA), EC50 value in comparison to reference [7]: 75% | Potency (Antigen ELISA), EC50 value in comparison to reference [8]: 75% | Potency (Antigen ELISA), EC50 value in comparison to reference [9]: 105% | Ag-ELISA EC50 % (relative to standard) [10]: 100% | Potency (Antigen ELISA), EC50 value in comparison to reference [11]: 75% | Ag-ELISA EC50 % (relative to standard) [12]: 93% | Potency (Antigen ELISA), EC50 value in comparison to reference [13]: 107% | Ag-ELISA EC50 % (relative to standard) [14]: 112% | Potency (Antigen ELISA), EC50 value in comparison to reference [15]: 119% | Potency (Antigen ELISA), EC50 value in comparison to reference [16]: 84% | Potency (Antigen ELISA), EC50 value in comparison to reference [17]: 121% | Potency (Antigen ELISA), EC50 value in comparison to reference [18]: 96% | Potency (Antigen ELISA), EC50 value in comparison to reference [19]: 114% | Potency (Antigen ELISA), EC50 value in comparison to reference [20]: 127% | Potency (Antigen ELISA), EC50 value in comparison to reference [21]: 104% | Potency (Antigen ELISA), EC50 value in comparison to reference [22]: 96% | Potency (Antigen ELISA), EC50 value in comparison to reference [23]: 92% | Potency (Antigen ELISA), EC50 value in comparison to reference [24]: 95% | Potency (Antigen ELISA), EC50 value in comparison to reference [25]: 101% | Potency (Antigen ELISA), EC50 value in comparison to reference [26]: 97%
B1: Lead CXCR5 Antibody (humanized IgG4 anti-CXCR5 antibody comprising a heavy chain of SEQ ID NO: 25 and a light chain of SEQ ID NO: 26) (antibody, V domains shown)
VH: QVQLKESGPGLVAPSESLSITCTVSGFSLIDYGVNWIRQPPGKGLEWLGVIWGDGTTYYNPSLKSRLSISKDNSKSQVFLKVTSLTTDDTAMYYCARIVYWGQGTLVTVSA
VL: DIVMTQAAPSVAVTPGASVSISCRSSKSLLHSSGKTYLYWFLQRPGQSPQLLIYRLSSLASGVPDRFSGSGSGTAFTLRISRVEAEDVGVYYCMQHLEYPYTFGGGTKLEIKR
